Measurements published in patent US20220089745A1 (Biogen, published 2022).
Numbering of substitutions follows the chain as printed.

B1: BIIB-4-311 (Fab, V domains shown)
VH: QVQLVQSGAEVKKPGASVKVSCKASGYTFTSYYMHWVRQAPGQGLEWMGVINPSGGSTSYAQKFQGRVTMTRDTSTSTVYMELSSLRSEDTAVYYCARLMSGSSGSWGQGTLVTVSS
VL: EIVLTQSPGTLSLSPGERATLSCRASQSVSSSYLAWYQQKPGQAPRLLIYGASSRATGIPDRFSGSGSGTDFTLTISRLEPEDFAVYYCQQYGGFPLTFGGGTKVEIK
notes: Tested as Fab made from yeast-expressed, protein A-purified antibody; Only VH and VL are tied to the clone
B2: BIIB-4-319 (Fab, V domains shown)
VH: QVQLQESGPGLVKPSETLSLTCAVSGYSISSGYYWAWIRQPPGKGLEWIGSIYHSGSTYYNPSLKSRVTISVDTSKNQFSLKLSSVTAADTAVYYCAREHSSSGQWNVWGQGTMVTVSS
VL: EIVLTQSPATLSLSPGERATLSCRASQSVSSYLAWYQQKPGQAPRLLIYDASNRATGIPARFSGSGSGTDFTLTISSLEPEDFAVYYCQQRSFYFTFGGGTKVEIK
notes: Tested as Fab made from yeast-expressed, protein A-purified antibody; Only VH and VL are tied to the clone; also called BBB-4-319
B3: BIIB-4-309 (Fab, V domains shown)
VH: QVQLVQSGAEVKKPGASVKVSCKASGYTFTSYGISWVRQAPGQGLEWMGWISAYNGNTNYAQKLQGRVTMTTDTSTSTAYMELRSLRSDDTAVYYCARDGLGSSPWSAFDIWGQGTMVTVSS
VL: not shown
notes: Tested as Fab made from yeast-expressed, protein A-purified antibody; Only VH and VL are tied to the clone; also called Fab BIIB_4_309
B4: BIIB-4-174 (Fab, V domains shown)
VH: QVQLVQSGAEVKKPGSSVKVSCKASGGTFSSYAISWVRQAPGQGLEWMGGIIPIFGTANYAQKFQGRVTITADESTSTAYMELSSLRSEDTAVYYCARGPPSAYGDYVWDIWGQGTMVTVSS
VL: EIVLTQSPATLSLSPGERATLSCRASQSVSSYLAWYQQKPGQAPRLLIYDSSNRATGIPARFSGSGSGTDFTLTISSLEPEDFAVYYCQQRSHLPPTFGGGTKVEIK
notes: as for B1
B5: BIIB-4-147 (Fab, V domains shown)
VH: QVQLVQSGAEVKKPGASVKVSCKASGYTFTSYGISWVRQAPGQGLEWMGWISAYNGNTNYAQKLQGRVTMTTDTSTSTAYMELRSLRSDDTAVYYCARDLEYYDSSGYAYGYFDLWGRGTLVTVSS
VL: not shown
notes: as for B1
B6: BIIB-4-156 (Fab, V domains shown)
VH: QVQLVQSGAEVKKPGSSVKVSCKASGGTFSSYAISWVRQAPGQGLEWMGGIIPIFGTANYAQKFQGRVTITADESTSTAYMELSSLRSEDTAVYYCARDTGYYGASLYFDYWGQGTLVTVSS
VL: EIVLTQSPATLSLSPGERATLSCRASQSVSSYLAWYQQKPGQAPRLLIYDASNRATGIPARFSGSGSGTDFTLTISSLEPEDFAVYYCQQRSALPRTFGGGTKVEIK
notes: as for B1
B7: BIIB-4-209 (Fab, V domains shown)
VH: QVQLVQSGAEVKKPGASVKVSCKASGYTFTSYGISWVRQAPGQGLEWMGWISAYNGNTNYAQKLQGRVTMTTDTSTSTAYMELRSLRSDDTAVYYCARGRPYDHYFDYWGQGTLVTVSS
VL: B6 VL with R91A, S92Y, A93N, L94Y, R96F
notes: as for B1
B8: BIIB-4-204 (Fab, V domains shown)
VH: QVQLVQSGAEVKKPGASVKVSCKASGYTFTSYSMHWVRQAPGQGLEWMGIINPSGGSTSYAQKFQGRVTMTRDTSTSTVYMELSSLRSEDTAVYYCARSYDIGYFDLWGRGTLVTVSS
VL: B6 VL with N53K, R91D, A93F, R96F
notes: as for B1
B9: BIIB-4-317 (Fab, V domains shown)
VH: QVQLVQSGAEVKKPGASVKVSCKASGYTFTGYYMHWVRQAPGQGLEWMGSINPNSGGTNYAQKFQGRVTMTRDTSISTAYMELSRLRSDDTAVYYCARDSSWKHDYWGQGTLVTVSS
VL: B6 VL with Y36F, R91Y, A93F, L94Y, R96L
notes: as for B1
B10: BIIB-4-175 (Fab, V domains shown)
VH: EVQLVESGGGLVQPGGSLRLSCAASGFTFSDHHMDWVRQAPGKGLEWVGRTRNKANSYTTEYAASVKGRFTISRDDSKNSLYLQMNSLKTEDTAVYYCARGPPYYADLGMGVWGQGTTVTVSS
VL: EIVMTQSPATLSVSPGERATLSCRASQSVSSNLAWYQQKPGQAPRLLIYGASTRATGIPARFSGSGSGTEFTLTISSLQSEDFAVYYCQQFNLYPYTFGGGTKVEIK
notes: as for B1
B11: BIIB-4-224 (Fab, V domains shown)
VH: QLQLQESGPGLVKPSETLSLTCTVSGGSISSSSYYWGWIRQPPGKGLEWIGSIYYSGSTYYNPSLKSRVTISVDTSKNQFSLKLSSVTAADTAVYYCARDFYSSVYGMDVWGQGTTVTVSS
VL: DIQLTQSPSSLSASVGDRVTITCRASQSISSFLNWYQQKPGKAPKLLIYAASSLQSGVPSRFSGSGSGTDFTLTISSLQPEDFATYYCQQSYVHPLTFGGGTKVEIK
notes: as for B1
B12: BIIB-4-318 (Fab, V domains shown)
VH: QVQLQESGPGLVKPSETLSLTCAVSGYSISSGYYWGWIRQPPGKGLEWIGSIYHSGSTNYNPSLKSRVTISVDTSKNQFSLKLSSVTAADTAVYYCARSPRWRSTYANWFNPWGQGTLVTVSS
VL: B11 VL with L11V, S28G, F32W, N34A, A50G, S91A, Y92A, V93P, H94F
notes: as for B1

Legend:
[1] = molecular target: T1, wild type (WT) GPIIb/IIIa ectodomain (heterodimer of SEQ ID NOs: 1 and 3) (human, UniProt P08514 32-993; P05106 27-716); experiment: apparent monovalent affinity for GP2b3a (SEQ ID: 1 and 3); BLI or SPR, the method of each row is not given
T1 construct: Recombinant purified ectodomain; also called GP2b3a; integrin αIIbβ3

[2] = molecular target: T2, integrin alpha v beta III ectodomain (SEQ ID NOs: 245 and 3) (human, UniProt P06756 31-992; P05106 27-716); experiment: BLI, monovalent format, yeast purified Fab; drawn table of apparent integrin binding specificity
T2 construct: Purified recombinant ectodomain; also called alpha v beta 3

[3] = molecular target: T2, integrin alpha v beta III ectodomain …; experiment: BLI, yeast purified Fab on sensor-associated AvB3 (sheet head: SEQ ID NOs: 199, 3; legend: SEQ ID NO 245 and 3)
[4] = molecular target: T2, integrin alpha v beta III ectodomain …; experiment: BLI, yeast purified Fab on sensor-associated AvB3 (sheet head: SEQ ID NOs: 199, 3; legend: SEQ ID NO 245 and 3); Fab concentration not given
[5] = molecular target: T2, integrin alpha v beta III ectodomain …; experiment: as above; remark: listed apart in the source
[6] = molecular target: T3, GPIIb/IIIa on gel-purified human platelets (activated or resting) (human, UniProt P08514 32-1039; P05106 27-788); experiment: flow cytometry, Fab on gel-purified human platelets; steeper curve with filled circles, which the legend box labels resting platelets
T3 construct: whole, on cells; Native receptor on platelets; also called integrin αIIbβ3 on platelets; GPIIb/IIIa on platelets

[7] = molecular target: T2, integrin alpha v beta III ectodomain …; experiment: BLI, yeast purified Fab on sensor-associated AvB3 (sheet head: SEQ ID NOs: 199, 3; legend: SEQ ID NO 245 and 3); remark: listed apart in the source
[8] = molecular target: T2, integrin alpha v beta III ectodomain …; experiment: BLI, monovalent format, yeast purified Fab; drawn table of apparent integrin binding specificity (legend of FIGS. 20A-D: alpha V beta III is SEQ ID NO 245 and 3)

| Binder | Kd [1] | binding result [2] | other results |
| --- | --- | --- | --- |
| B1 | 64 nM | no binding |  |
| B2 |  |  | binding result [3]: binds |
| B3 | 25 nM | no binding |  |
| B4 | 11 nM |  | binding result [4]: no binding |
| B5 | 5 nM |  | binding result [5]: no binding |
| B6 | 11 nM |  | EC50 (read off the curve) [6]: ~20 nM; binding result [7]: binds |
| B7 | 98 nM |  | binding result [8]: binds |
| B8 | 170 nM |  | binding result [8]: binds |
| B9 |  |  | binding result [8]: binds |
| B10 | 15 nM | no binding |  |
| B11 | 200 nM | no binding |  |
| B12 | 3 nM | no binding |  |
